Measured values published in article PMC5834491, “CryoEM structure of the human SLC4A4 sodium-coupled acid-base transporter NBCe1” (Nature Communications, 2018).

Molecular target: the molecule itself
Assay: cryo-EM structure; single-particle cryoEM of NBCe1-A (~0.4 mg/ml) in amphipol PMAL-C8, 20 mM Tris-HCl pH 7.5, 150 mM NaCl; C2 symmetry imposed; 3.9 Å

B1: Human N-terminally Strep(II)-tagged wild-type NBCe1-A (SLC4A4 sodium-bicarbonate cotransporter) (natural protein, UniProt Q9Y6R1-2 1-1035, looked up)
chain: MSTENVEGKPSNLGERGRARSSTFLRVVQPMFNHSIFTSAVSPAAERIRFILGEEDDSPAPPQLFTELDELLAVDGQEMEWKETARWIKFEEKVEQGGERWSKPHVATLSLHSLFELRTCMEKGSIMLDREASSLPQLVEMIVDHQIETGLLKPELKDKVTYTLLRKHRHQTKKSNLRSLADIGKTVSSASRMFTNPDNGSPAMTHRNLTSSSLNDISDKPEKDQLKNKFMKKLPRDAEASNVLVGEVDFLDTPFIAFVRLQQAVMLGALTEVPVPTRFLFILLGPKGKAKSYHEIGRAIATLMSDEVFHDIAYKAKDRHDLIAGIDEFLDEVIVLPPGEWDPAIRIEPPKSLPSSDKRKNMYSGGENVQMNGDTPHDGGHGGGGHGDCEELQRTGRFCGGLIKDIKRKAPFFASDFYDALNIQALSAILFIYLATVTNAITFGGLLGDATDNMQGVLESFLGTAVSGAIFCLFAGQPLTILSSTGPVLVFERLLFNFSKDNNFDYLEFRLWIGLWSAFLCLILVATDASFLVQYFTRFTEEGFSSLISFIFIYDAFKKMIKLADYYPINSNFKVGYNTLFSCTCVPPDPANISISNDTTLAPEYLPTMSSTDMYHNTTFDWAFLSKKECSKYGGNLVGNNCNFVPDITLMSFILFLGTYTSSMALKKFKTSPYFPTTARKLISDFAIILSILIFCVIDALVGVDTPKLIVPSEFKPTSPNRGWFVPPFGENPWWVCLAAAIPALLVTILIFMDQQITAVIVNRKEHKLKKGAGYHLDLFWVAILMVICSLMALPWYVAATVISIAHIDSLKMETETSAPGEQPKFLGVREQRVTGTLVFILTGLSVFMAPILKFIPMPVLYGVFLYMGVASLNGVQFMDRLKLLLMPLKHQPDFIYLRHVPLRRVHLFTFLQVLCLALLWILKSTVAAIIFPVMILALVAVRKGMDYLFSQHDLSFLDDVIPEKDKKKKEDEKKKKKKKGSLDSDNDDSDCPYSEKVPSIKIPMDIMEQQPFLSDSKPSDRERSPTFLERHTSC
notes: Electrogenic sodium bicarbonate cotransporter 1, NBCe1-A variant, human, full length; Only the membrane domain was modelled (474 residues per protomer); Met1-Gly400, Cys583-Leu637, Ser713-Trp734, Glu814-Lys825 and Asp966-Cys1035 were not modelled. numbers count on: the NBCe1-A isoform (1035 residues); Homodimer in amphipol PMAL-C8; The pTT vector is named (Addgene), no plasmid number is printed; …
  stoichiometry N: 2
